# US20130142732, “RECOMBINANT FLUORESCENT NANOPARTICLES” (KOREA UNIVERSITY RESEARCH AND BUSINESS FOUNDATION, published 2013)
# What was measured:
# [1] = biological target: T1, PDGF-BB (UniProt P01127 P01127:82-190); assay: printed as 5.0 x 1011 mol/L, exponent sign lost; sandwich plate assay with biotin-aptamer capture, PBS, 37 C, linearized Langmuir; conditions: tags: Sigma-Aldrich; chain copies: 2 (homodimer, inferred); label: Cy3
# Procedure: (§1) On the Basis of the linearized form of the Langmur absorption isotherm and the linear curve of FIG. 5C, the dissociation constants (KD) were determined by a PDGF-BB analysis method using each of the DNA-aptamer-conjugated gFFNP, eGFP, and Cy3, and the results are shown in Table 7.
# [2] = biological target: T1, PDGF-BB; assay: printed as 4.0 x 1011 mol/L, exponent sign lost; sandwich plate assay with biotin-aptamer capture, PBS, 37 C, linearized Langmuir; conditions: tags: Sigma-Aldrich; chain copies: 2 (homodimer, inferred); label: eGFP
# Procedure: as §1
# T1 sequence (P01127 82-190, one chain of several): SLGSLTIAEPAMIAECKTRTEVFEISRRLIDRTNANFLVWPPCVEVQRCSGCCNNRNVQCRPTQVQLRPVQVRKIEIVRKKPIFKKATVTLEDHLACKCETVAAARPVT
Binder,Kd [1] [nM],Kd [2] [nM]
"CACAGGCTACGGCACGTAGAGCATCACCATGATCCTGTGT (ssDNA, 5'-Cy3) [PDGF-BB DNA aptamer Cy3-modified]",0.05,
"CACAGGCTACGGCACGTAGAGCATCACCATGATCCTGTGT (ssDNA, 5'-NH2-(CH2)6, SSMCC-coupled to eGFP(S175C)) [PDGF-BB DNA aptamer conjugated to eGFP]",,0.04
